{"source": "patent US20030092632A1", "about": "“Sulfated CCR5 peptides for HIV-1 infection” (priority 2001, published 2003)", "key": {"CCR5+ cells": {"test_system": "CCR5+ cells", "conditions": "pre-treatment of target cells; Farzan et al. 1999; cited from earlier work"}, "[1]": {"biological_target": "envelope glycoproteins from HIV-1 strain JR-FL on NLluc+env- pseudotyped particles (HIV-1 JR-FL)", "assay": "cell-based or functional assay"}, "CCR5": {"biological_target": "CCR5", "assay": "flow cytometry on L1.2-CCR5+ cells, no peptide (defined as 100%), PE-streptavidin"}, "HIV-1": {"test_system": "HIV-1", "conditions": "by associating with CD4 or gp120; literature; cited from earlier work"}}, "data": [{"molecule": "[Na+].[O-][Cl+2]([O-])[O-]", "note": "[sodium chlorate]", "values": [{"measurement": "Binding of a gp120/CD4 complex to CCR5+ cells", "setting": "CCR5+ cells", "value": "decreased"}]}, {"molecule": "CCR5 Nt peptide S-3/10/14", "values": [{"measurement": "inhibition of viral entry, luciferase-based single round of entry assay, HeLa-CD4+CCR5+ and U87MG-CD4+CCR5+ cells, peptide 100 µM", "setting": "[1]", "value": 50, "unit": "%"}]}, {"molecule": "CCR5 Nt peptide S-10/14", "values": [{"measurement": "inhibition of viral entry, luciferase-based single round of entry assay, HeLa-CD4+CCR5+ and U87MG-CD4+CCR5+ cells, peptide 100 µM", "setting": "[1]", "value": 50, "unit": "%"}]}, {"molecule": "biotinylated gp120JR-FL/CD4-IgG2 complex", "values": [{"measurement": "m.f.i.", "setting": "CCR5", "value": 40, "unit": "m.f.i."}]}, {"molecule": "dextran sulfate", "values": [{"measurement": "Inhibition of HIV-1 entry", "setting": "HIV-1", "value": "can inhibit HIV-1 entry"}]}]}
